This is an account of results in PMC6555819, “Comprehensive study of nuclear receptor DNA binding provides a revised framework for understanding receptor specificity”.

Residue numbers refer to the chain shown, from its start.

Sequences and labels used below:
B1: NRC3_wobSeed25_DR1_T25A_o1 (dsDNA)
DNA 1: GCCAAACTAGGTCAAAGGTCAAAGACGAGCCAACCAGCGATTGACAGCGTAGAATGAAGG
DNA 2: CCTTCATTCTACGCTGTCAATCGCTGGTTGGCTCGTCTTTGACCTTTGACCTAGTTTGGC
B2: NRC3_wobSeed69_DR2_T20C_o1 (dsDNA)
DNA 1: GCAGTCAAAGTTCACTAGGCAACGTAAGATTCAGCTGCGATTGACAGCGTAGAATGAAGG
DNA 2: CCTTCATTCTACGCTGTCAATCGCAGCTGAATCTTACGTTGCCTAGTGAACTTTGACTGC
B3: NRC3_wobSeed44_DR1_T13G_o1 (dsDNA)
DNA 1: GCTGAATGAGGTGAAAGATCAGGGAACGTGGCGTCGGCGATTGACAGCGTAGAATGAAGG
DNA 2: CCTTCATTCTACGCTGTCAATCGCCGACGCCACGTTCCCTGATCTTTCACCTCATTCAGC
B4: NRC3_wobSeed93_DR3_A18G_o1 (dsDNA)
DNA 1: GCAGTCAAAGTTCATCTGGGTAACGTAAGATATGCTGCGATTGACAGCGTAGAATGAAGG
DNA 2: CCTTCATTCTACGCTGTCAATCGCAGCATATCTTACGTTACCCAGATGAACTTTGACTGC
B5: NRC3_wobSeed135_DR5_A5C_o1 (dsDNA)
DNA 1: GCCGCACTAGGTCATTGACAGGACAGTGAATAGTAAGCGATTGACAGCGTAGAATGAAGG
DNA 2: CCTTCATTCTACGCTGTCAATCGCTTACTATTCACTGTCCTGTCAATGACCTAGTGCGGC
B6: NRC3_wobSeed46_DR1_G13A_o1 (dsDNA)
DNA 1: GCTTACCAAGGTAAAAGGTCGTTGATGCACGCCTTGGCGATTGACAGCGTAGAATGAAGG
DNA 2: CCTTCATTCTACGCTGTCAATCGCCAAGGCGTGCATCAACGACCTTTTACCTTGGTAAGC
B7: NRC3_wobSeed18_DR0_G23A_o1 (dsDNA)
DNA 1: GCGATACAGGGTCAAGGCCAGAATACGCGTATTGATGCGATTGACAGCGTAGAATGAAGG
DNA 2: CCTTCATTCTACGCTGTCAATCGCATCAATACGCGTATTCTGGCCTTGACCCTGTATCGC
B8: NRC3_wobSeed30_DR1_C8A_o1 (dsDNA)
DNA 1: GCACTAGAAGGCCAAGGGTCACTCAAGATTAGTCCGGCGATTGACAGCGTAGAATGAAGG
DNA 2: CCTTCATTCTACGCTGTCAATCGCCGGACTAATCTTGAGTGACCCTTGGCCTTCTAGTGC
B9: NRC3_wobSeed25_DR1_T8C_o1 (dsDNA)
DNA 1: B1 DNA 1 with T8C, A25T
DNA 2: B1 DNA 2 with T36A, A53G
B10: NRC3_wobSeed117_DR4_T11G_o1 (dsDNA)
DNA 1: GCCGTCAAAGGTCAACTAAGGTAACGTAAAGCACGCGCGATTGACAGCGTAGAATGAAGG
DNA 2: CCTTCATTCTACGCTGTCAATCGCGCGTGCTTTACGTTACCTTAGTTGACCTTTGACGGC
B11: NRC3_wobSeed1_DR0_T8A_o1 (dsDNA)
DNA 1: GCCAAACAAGGTCAAGGTCAAAGTCGGTTTGTGCCAGCGATTGACAGCGTAGAATGAAGG
DNA 2: CCTTCATTCTACGCTGTCAATCGCTGGCACAAACCGACTTTGACCTTGACCTTGTTTGGC
B12: NRC3_random_hg19_277_o1 (dsDNA)
DNA 1: GCGGTGGCACACGCATGGAATCCCAGCGCTTTGGGAGCGATTGACAGCGTAGAATGAAGG
DNA 2: CCTTCATTCTACGCTGTCAATCGCTCCCAAAGCGCTGGGATTCCATGCGTGTGCCACCGC
B13: NRC3_wobSeed113_DR4_G15T_o1 (dsDNA)
DNA 1: GCATATGTAGGTTATCTGGGGTCATTCAGACTAGGCGCGATTGACAGCGTAGAATGAAGG
DNA 2: CCTTCATTCTACGCTGTCAATCGCGCCTAGTCTGAATGACCCCAGATAACCTACATATGC
B14: NRC3_wobSeed93_DR3_A22C_o1 (dsDNA)
DNA 1: B4 DNA 1 with G18A, A22C
DNA 2: B4 DNA 2 with T39G, C43T
B15: NRC3_random_hg19_198_o1 (dsDNA)
DNA 1: GCAGTTATGTCCACTTGCATAAGTGCAACGTTTGGCGCGATTGACAGCGTAGAATGAAGG
DNA 2: CCTTCATTCTACGCTGTCAATCGCGCCAAACGTTGCACTTATGCAAGTGGACATAACTGC
B16: NRC3_random_hg19_142_o1 (dsDNA)
DNA 1: GCGGTACTCAGTATGTGAAGAATCATGTTGAGGCAGGCGATTGACAGCGTAGAATGAAGG
DNA 2: CCTTCATTCTACGCTGTCAATCGCCTGCCTCAACATGATTCTTCACATACTGAGTACCGC
B17: NRC3_random_hg19_491_o1 (dsDNA)
DNA 1: GCCGCCTTTAGATTGCAGGCTCCTGGAGAGCTGTCTGCGATTGACAGCGTAGAATGAAGG
DNA 2: CCTTCATTCTACGCTGTCAATCGCAGACAGCTCTCCAGGAGCCTGCAATCTAAAGGCGGC
B18: NRC3_wobSeed124_DR5_T23G_o1 (dsDNA)
DNA 1: GCCCTACTGGGCCATTCAGAGGGCATTGATCATATGGCGATTGACAGCGTAGAATGAAGG
DNA 2: CCTTCATTCTACGCTGTCAATCGCCATATGATCAATGCCCTCTGAATGGCCCAGTAGGGC
B19: NRC3_random_hg19_388_o1 (dsDNA)
DNA 1: GCACAAGTCTACAAACCCTGGGAGAATGAGAAGTGTGCGATTGACAGCGTAGAATGAAGG
DNA 2: CCTTCATTCTACGCTGTCAATCGCACACTTCTCATTCTCCCAGGGTTTGTAGACTTGTGC
B20: NRC3_wobSeed45_DR1_A9T_o1 (dsDNA)
DNA 1: GCTGTCAATGTTCAAAGGTAACGTAAGTATCCACACGCGATTGACAGCGTAGAATGAAGG
DNA 2: CCTTCATTCTACGCTGTCAATCGCGTGTGGATACTTACGTTACCTTTGAACATTGACAGC

Sequence of FXR:RXRa (Q96RI1 whole entry, chain 1 of 2): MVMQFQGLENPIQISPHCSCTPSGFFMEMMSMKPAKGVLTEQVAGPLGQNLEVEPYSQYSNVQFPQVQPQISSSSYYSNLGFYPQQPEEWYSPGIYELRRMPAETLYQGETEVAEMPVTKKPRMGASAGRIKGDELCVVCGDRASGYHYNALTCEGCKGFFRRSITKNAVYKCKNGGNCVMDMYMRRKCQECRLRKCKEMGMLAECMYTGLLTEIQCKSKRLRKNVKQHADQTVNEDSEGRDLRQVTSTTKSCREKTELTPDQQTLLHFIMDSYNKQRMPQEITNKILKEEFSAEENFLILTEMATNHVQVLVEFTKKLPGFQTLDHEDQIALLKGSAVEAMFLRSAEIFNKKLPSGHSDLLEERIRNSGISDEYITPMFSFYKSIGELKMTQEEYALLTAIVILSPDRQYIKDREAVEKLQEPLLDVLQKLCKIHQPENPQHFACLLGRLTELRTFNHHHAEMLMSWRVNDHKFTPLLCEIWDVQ
Sequence of FXR:RXRa (P19793 whole entry, chain 2 of 2): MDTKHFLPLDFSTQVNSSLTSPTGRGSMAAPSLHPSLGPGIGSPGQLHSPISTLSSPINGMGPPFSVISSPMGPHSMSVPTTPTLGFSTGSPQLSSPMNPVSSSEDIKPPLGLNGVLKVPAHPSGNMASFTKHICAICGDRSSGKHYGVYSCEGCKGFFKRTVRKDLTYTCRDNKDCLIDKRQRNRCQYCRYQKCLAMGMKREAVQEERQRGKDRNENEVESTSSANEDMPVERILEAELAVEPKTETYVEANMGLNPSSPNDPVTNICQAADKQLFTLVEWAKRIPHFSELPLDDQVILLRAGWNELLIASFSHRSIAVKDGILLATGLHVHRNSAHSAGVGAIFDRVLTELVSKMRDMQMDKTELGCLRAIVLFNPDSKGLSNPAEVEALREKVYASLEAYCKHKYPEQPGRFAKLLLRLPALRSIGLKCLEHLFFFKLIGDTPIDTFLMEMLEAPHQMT
Sequence of LXRa:RXRa (Q13133 whole entry, chain 1 of 2): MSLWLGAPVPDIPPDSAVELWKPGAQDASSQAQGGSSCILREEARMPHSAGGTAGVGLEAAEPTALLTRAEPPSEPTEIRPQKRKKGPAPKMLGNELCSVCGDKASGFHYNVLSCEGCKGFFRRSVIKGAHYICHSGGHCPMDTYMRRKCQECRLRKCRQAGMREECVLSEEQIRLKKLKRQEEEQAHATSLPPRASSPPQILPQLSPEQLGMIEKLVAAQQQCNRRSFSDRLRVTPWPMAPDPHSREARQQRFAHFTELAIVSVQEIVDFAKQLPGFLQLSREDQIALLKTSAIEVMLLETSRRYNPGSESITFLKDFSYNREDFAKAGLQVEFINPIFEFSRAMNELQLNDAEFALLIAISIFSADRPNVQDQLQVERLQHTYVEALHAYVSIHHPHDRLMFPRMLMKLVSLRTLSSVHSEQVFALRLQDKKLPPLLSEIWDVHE
Sequence of LXRa:RXRa (P19793 whole entry, chain 2 of 2): as the sequence (P19793 whole entry, chain 2 of 2) above

In the first series the target is PPARg:RXRa (Homo sapiens, UniProt P37231;P19793 full;full). Put plainly: no ligand; PBM; 180 nM : 90 nM RXRa; PBS pH 7.4, 2% milk, 0.02% Triton X-100, 1 mM DTT, BSA, 0.4 mg/ml salmon testes DNA. Particulars: tags: His kept;His cleaved; copies: 1;1; label: surface-attached array probe.
Sequence of PPARg:RXRa (P37231 29-505, chain 1 of 2): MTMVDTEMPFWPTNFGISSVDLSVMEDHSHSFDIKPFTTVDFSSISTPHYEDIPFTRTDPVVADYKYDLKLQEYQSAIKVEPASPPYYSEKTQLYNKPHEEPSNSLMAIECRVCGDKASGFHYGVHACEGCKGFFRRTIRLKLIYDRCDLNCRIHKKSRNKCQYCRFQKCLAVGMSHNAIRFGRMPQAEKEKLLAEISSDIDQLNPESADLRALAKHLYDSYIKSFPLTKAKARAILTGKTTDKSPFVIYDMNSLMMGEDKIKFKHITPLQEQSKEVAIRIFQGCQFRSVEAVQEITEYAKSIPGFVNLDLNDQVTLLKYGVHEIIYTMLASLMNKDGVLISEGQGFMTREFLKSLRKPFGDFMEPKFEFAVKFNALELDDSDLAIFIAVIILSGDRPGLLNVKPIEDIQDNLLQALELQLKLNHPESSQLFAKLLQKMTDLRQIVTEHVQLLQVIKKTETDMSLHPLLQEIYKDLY
Sequence of PPARg:RXRa (P19793 whole entry, chain 2 of 2): as the sequence (P19793 whole entry, chain 2 of 2) above
As for B1, the binding signal was 14.6 PBM z-score against 500 random probes.
The same measure, in the same setting: for B2 the value was 6.68 PBM z-score against 500 random probes.
On the same count and under the same terms, for B3 the value was 6.9 PBM z-score against 500 random probes; for B4, 6.45 PBM z-score against 500 random probes.
As to B5, the binding signal is 7.03 PBM z-score against 500 random probes.
On to B6, for which the binding signal is 6.58 PBM z-score against 500 random probes.
As to B7, the binding signal is 6.34 PBM z-score against 500 random probes.
As for B8, the binding signal is 6.78 PBM z-score against 500 random probes.

The next series deals with RXRa (Homo sapiens, UniProt P19793). Put plainly: no ligand; PBM; 180 nM; PBS pH 7.4, 2% milk, 0.02% Triton X-100, 1 mM DTT, BSA, 0.4 mg/ml salmon testes DNA. The note with it: tags: His cleaved; chain copies: 2; label: surface-attached array probe.
Sequence of RXRa (P19793 whole entry): as the sequence (P19793 whole entry, chain 2 of 2) above
As to B9, the binding signal was 10.8 PBM z-score against 500 random probes.
On the same count and under the same terms, for B10 the value was 9.06 PBM z-score against 500 random probes; for B11, 7.79 PBM z-score against 500 random probes; for B12, -0.54 PBM z-score against 500 random probes.

A further series deals with VDR:RXRa (Homo sapiens, UniProt P11473;P19793 full;full). As to the kind of experiment: no ligand; PBM; 270 nM : 90 nM RXRa; PBS pH 7.4, 2% milk, 0.02% Triton X-100, 1 mM DTT, BSA, 0.4 mg/ml salmon testes DNA. The note with it: tags: His kept;His cleaved; copies: 1;1; label: surface-attached array probe. In short, it runs like this: (§1)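 Ligand-free nuclear receptor dimers were applied to custom Agilent 4×180K protein-binding microarrays whose double-stranded probes carried direct-repeat seeds, single-nucleotide variants, half-site ablations and random human genomic background sequences in 34-nt variable regions. Incubation lasted 1 h. Binding z-scores were computed against the random background probes from regression-normalized fluorescence.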
Sequence of VDR:RXRa (P11473 whole entry, chain 1 of 2): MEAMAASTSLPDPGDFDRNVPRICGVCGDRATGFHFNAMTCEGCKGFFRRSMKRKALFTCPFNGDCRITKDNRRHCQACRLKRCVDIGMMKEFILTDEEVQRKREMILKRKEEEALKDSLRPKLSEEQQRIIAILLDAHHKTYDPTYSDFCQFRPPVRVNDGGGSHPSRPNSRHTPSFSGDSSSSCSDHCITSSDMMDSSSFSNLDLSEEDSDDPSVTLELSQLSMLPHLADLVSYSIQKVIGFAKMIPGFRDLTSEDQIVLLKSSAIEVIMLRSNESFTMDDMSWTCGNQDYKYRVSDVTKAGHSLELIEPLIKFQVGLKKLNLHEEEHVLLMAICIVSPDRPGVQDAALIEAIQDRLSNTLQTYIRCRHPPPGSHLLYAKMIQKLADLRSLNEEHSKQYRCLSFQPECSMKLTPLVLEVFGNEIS
Sequence of VDR:RXRa (P19793 whole entry, chain 2 of 2): as the sequence (P19793 whole entry, chain 2 of 2) above
In the case of B9, the binding signal is 7.07 PBM z-score against 500 random probes.
As to B13, the binding signal is 6.99 PBM z-score against 500 random probes.
Consider B14, for which the binding signal is 7.14 PBM z-score against 500 random probes.

In a further series the target is PPARa:RXRa (Homo sapiens, UniProt Q07869;P19793 full;full). The series is described as above. The note with it: tags: GST kept;His cleaved; copies: 1;1; label: surface-attached array probe. In short, it runs like this: as §1
As for B10, the binding signal is 6.96 PBM z-score against 500 random probes.

A further series concerns the target FXR:RXRa (Homo sapiens, UniProt Q96RI1;P19793 full;full). The description is as above. The note with it: tags: His kept;His cleaved; copies: 1;1; label: surface-attached array probe. In short, it runs like this: as §1
As to B9, the binding signal is 8.73 PBM z-score against 500 random probes.
In the case of B15, the binding signal is -0.27 PBM z-score against 500 random probes.
Still for that read-out and setting: the result for B10 reads 8.82 PBM z-score against 500 random probes; that for B11, 8.19 PBM z-score against 500 random probes.

Another series concerns the target LXRa:RXRa (Homo sapiens, UniProt Q13133;P19793 full;full). Described as above. Particulars: tags: His kept;His cleaved; copies: 1;1; label: surface-attached array probe. The essentials:
as §1
Turning to B16, the binding signal is 0.28 PBM z-score against 500 random probes.
The same measure, in the same setting: the result for B17 reads -0.82 PBM z-score against 500 random probes.
The same measure, in the same setting: the result for B9 reads 7.81 PBM z-score against 500 random probes; that for B15, -0.41 PBM z-score against 500 random probes; that for B10, 7.32 PBM z-score against 500 random probes.
Turning to B11, the binding signal is 6.69 PBM z-score against 500 random probes.
On the same count and under the same terms, the result for B13 reads 8.36 PBM z-score against 500 random probes; that for B18, -0.01 PBM z-score against 500 random probes; that for B19, -0.44 PBM z-score against 500 random probes.
Still for that read-out and setting: for B14 the value was 6.64 PBM z-score against 500 random probes; for B20, 0.41 PBM z-score against 500 random probes; for B12, -0.75 PBM z-score against 500 random probes.

Another series deals with LXRb:RXRa (Homo sapiens, UniProt P55055;P19793 full;full). The series is described as above. The note with it: tags: His kept;His cleaved; copies: 1;1; label: surface-attached array probe. In short, it runs like this: as §1
On to B10, for which the binding signal was 6.25 PBM z-score against 500 random probes.
In the case of B11, the binding signal is 5.84 PBM z-score against 500 random probes.
Same read-out and setting: for B13 the value was 7.25 PBM z-score against 500 random probes.

The target in another series is PXR:RXRa (Homo sapiens, UniProt O75469;P19793 full;full). Described as above. Particulars: tags: His kept;His cleaved; copies: 1;1; label: surface-attached array probe. The essentials: as §1
B16: the binding signal was 0.04 PBM z-score against 500 random probes.
Take B17: the binding signal is -1.27 PBM z-score against 500 random probes.
Same read-out and setting: the result for B9 reads 7.42 PBM z-score against 500 random probes; that for B15, 0.06 PBM z-score against 500 random probes; that for B10, 6.64 PBM z-score against 500 random probes.
Turning to B11, the binding signal was 6.47 PBM z-score against 500 random probes.
Same read-out and setting: for B13 the value was 6.87 PBM z-score against 500 random probes; for B18, 0.42 PBM z-score against 500 random probes.
Still for that read-out and setting: for B19 the value was -0.52 PBM z-score against 500 random probes; for B14, 7.03 PBM z-score against 500 random probes; for B20, 0.4 PBM z-score against 500 random probes.
Same read-out and setting: for B12 the value was -0.74 PBM z-score against 500 random probes.

For a further series, the target named is RARg:RXRa (Homo sapiens, UniProt P13631;P19793 full;full). Described as above. Particulars: tags: His kept;His cleaved; copies: 1;1; label: surface-attached array probe. The essentials: as §1
For B10, the binding signal is 8.38 PBM z-score against 500 random probes.
Still for that read-out and setting: the result for B11 reads 7.39 PBM z-score against 500 random probes.

The target of a further series is RARb:RXRa (Homo sapiens, UniProt P10826;P19793 full;full). The series is described as above. Particulars: tags: His kept;His cleaved; copies: 1;1; label: surface-attached array probe. In short, it runs like this: as §1
In the case of B10, the binding signal is 6.27 PBM z-score against 500 random probes.
As to B11, the binding signal is 6.01 PBM z-score against 500 random probes.
Regarding B14, the binding signal is 5.57 PBM z-score against 500 random probes.
